Experimental findings from publication PMC2768332 are described below.

In the series the target is T1, KSRP (UniProt Q92945 1-711).
T1 sequence: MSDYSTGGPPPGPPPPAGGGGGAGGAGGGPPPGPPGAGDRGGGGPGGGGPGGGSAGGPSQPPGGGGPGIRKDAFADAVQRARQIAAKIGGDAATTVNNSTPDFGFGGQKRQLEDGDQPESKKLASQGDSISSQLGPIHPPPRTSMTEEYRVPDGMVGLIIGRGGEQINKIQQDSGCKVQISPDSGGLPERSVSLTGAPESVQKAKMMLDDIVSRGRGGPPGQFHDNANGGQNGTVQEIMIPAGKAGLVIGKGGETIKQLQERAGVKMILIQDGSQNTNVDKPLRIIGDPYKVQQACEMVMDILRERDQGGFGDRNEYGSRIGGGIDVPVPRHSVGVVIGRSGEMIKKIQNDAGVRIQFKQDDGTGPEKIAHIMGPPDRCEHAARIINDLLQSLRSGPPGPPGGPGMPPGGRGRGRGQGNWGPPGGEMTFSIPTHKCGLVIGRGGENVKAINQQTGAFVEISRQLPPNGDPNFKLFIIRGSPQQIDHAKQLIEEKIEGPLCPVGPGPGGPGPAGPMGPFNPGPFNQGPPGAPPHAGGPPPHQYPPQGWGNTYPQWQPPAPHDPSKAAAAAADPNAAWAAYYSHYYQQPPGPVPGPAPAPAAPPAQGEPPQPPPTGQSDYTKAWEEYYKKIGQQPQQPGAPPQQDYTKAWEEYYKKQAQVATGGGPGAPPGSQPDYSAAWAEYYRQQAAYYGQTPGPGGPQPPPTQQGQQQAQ
As to the kind of experiment: UV-crosslinking or EMSA. On the technique in general: Mobility shift assays separate free from complexed probe on a gel.

As to CUGUUGAAUCUCAUGG (ssRNA) [TL-miR-21 WT], the binding result is reported as “binds”. Consider CUCUUCAAUCUCAUGG (ssRNA) [TL-miR-21 M2], for which the binding result is listed as “no binding”.
